# Columns and labels:
# HLA-A*02:06 = test: IEDB peptide-MHC binding, purified MHC/competitive/radioactivity; filed as Kd, often an IC50 or EC50 that approximates it; ≥ and ≤ were set here for values at or beyond the usual limits of such assays
# HLA-A*02:03 = test: as above
# HLA-A*02:02 = test: as above
# HLA-A*02:01 [1] = test: IEDB peptide-MHC binding, purified MHC/direct/fluorescence; filed as Kd, often an IC50 or EC50 that approximates it; ≥ and ≤ were set here for values at or beyond the usual limits of such assays
# HLA-A*30:02 = test: IEDB peptide-MHC binding, purified MHC/competitive/radioactivity; filed as Kd, often an IC50 or EC50 that approximates it; ≥ and ≤ were set here for values at or beyond the usual limits of such assays
# HLA-A*02:01 [2] = test: IEDB peptide-MHC binding, purified MHC/competitive/fluorescence; filed as Kd, often an IC50 or EC50 that approximates it; ≥ and ≤ were set here for values at or beyond the usual limits of such assays
# HLA-A*02:01 [3] = test: IEDB peptide-MHC binding, purified MHC/competitive/fluorescence; ≥ and ≤ were set here for values at or beyond the usual limits of such assays
# HLA-A*11:01 [4] = test: IEDB peptide-MHC binding, purified MHC/direct/fluorescence; filed as Kd, often an IC50 or EC50 that approximates it; ≥ and ≤ were set here for values at or beyond the usual limits of such assays; conditions: source organism: Homo sapiens
# HLA-A*03:01 [5] = test: as above; conditions: source organism: Homo sapiens
# HLA-B*27:05 = test: as above; conditions: source organism: Homo sapiens
# HLA-A*23:01 = test: IEDB peptide-MHC binding, purified MHC/competitive/radioactivity; filed as Kd, often an IC50 or EC50 that approximates it; ≥ and ≤ were set here for values at or beyond the usual limits of such assays
# HLA-A*69:01 = test: IEDB peptide-MHC binding, purified MHC/direct/fluorescence; filed as Kd, often an IC50 or EC50 that approximates it; ≥ and ≤ were set here for values at or beyond the usual limits of such assays; conditions: source organism: Yersinia pestis
# HLA-B*15:01 = test: as above
# HLA-B*58:01 = test: as above; conditions: source organism: Yersinia pestis
# HLA-A*24:02 = test: IEDB peptide-MHC binding, purified MHC/competitive/radioactivity; filed as Kd, often an IC50 or EC50 that approximates it; ≥ and ≤ were set here for values at or beyond the usual limits of such assays; conditions: source organism: Dengue virus 3 Singapore/8120/1995
# HLA-A*11:01 [6] = test: as above; conditions: source organism: Dengue virus 3 Martinique/1243/1999
# HLA-A*03:01 [7] = test: as above; conditions: source organism: Dengue virus 3 Martinique/1243/1999
# HLA-A*01:01 = test: as above; conditions: source organism: Dengue virus 3 Martinique/1243/1999
# HLA-A*26:01 = test: IEDB peptide-MHC binding, purified MHC/direct/fluorescence; filed as Kd, often an IC50 or EC50 that approximates it; ≥ and ≤ were set here for values at or beyond the usual limits of such assays; conditions: source organism: Mycobacterium tuberculosis
# [8] = source organism: Vaccinia virus WR
# [9] = source organism: Mammarenavirus juninense
# [10] = source organism: SARS coronavirus Tor2
# [11] = source organism: Lassa virus Josiah
# [12] = source organism: Lymphocytic choriomeningitis virus (strain Armstrong)
# [13] = source organism: Yersinia pestis
sequence,measurement,setting,value
LATLNTLIT,Kd,HLA-A*02:06; [8],14200 nM
same,Kd,HLA-A*02:03; [8],1550 nM
same,Kd,HLA-A*02:02; [8],1160 nM
AMPGVLSYV,Kd,HLA-A*02:01 [1]; [9],3.6 nM
same,Kd,HLA-A*02:06; [9],21.8 nM
same,Kd,HLA-A*02:03; [9],7.29 nM
same,Kd,HLA-A*02:02; [9],4.22 nM
KNEHKSTWHY,Kd,HLA-A*30:02; source organism: Dengue virus 1 Brazil/97-11/1997,450 nM
SLFGQRIEV,Kd,HLA-A*02:01 [2]; source organism: West Nile virus,0.9 nM
same,IC50,HLA-A*02:01 [3]; source organism: West Nile virus NY-99,204 nM
ERLQICQRK,Kd,HLA-A*11:01 [4],9400 nM
same,Kd,HLA-A*03:01 [5],10400 nM
same,Kd,HLA-B*27:05,1680 nM
TAIRAGYSI,Kd,HLA-A*02:06; [8],7690 nM
same,Kd,HLA-A*02:03; [8],9200 nM
same,Kd,HLA-A*02:02; [8],14500 nM
LLVNEFYI,Kd,HLA-A*02:01 [2]; [8],58.7 nM
KLKVDSDSGL,Kd,HLA-A*02:06; [8],≥ 10000 nM
same,Kd,HLA-A*02:03; [8],55.8 nM
same,Kd,HLA-A*02:02; [8],74.6 nM
FQFICNLLLL,Kd,HLA-A*02:06; [10],0.87 nM
same,Kd,HLA-A*02:03; [10],62 nM
same,Kd,HLA-A*02:02; [10],7.94 nM
YWISNGTGNI,Kd,HLA-A*23:01; source organism: Dengue virus 3 Martinique/1243/1999,165 nM
MMVILPDKI,Kd,HLA-A*02:06; [8],909 nM
same,Kd,HLA-A*02:03; [8],16.3 nM
same,Kd,HLA-A*02:02; [8],69.2 nM
VLKAMHDKKI,Kd,HLA-A*02:06; [8],≥ 69800 nM
same,Kd,HLA-A*02:03; [8],≥ 33900 nM
same,Kd,HLA-A*02:02; [8],≥ 48900 nM
WLVIGVAFL,Kd,HLA-A*02:06; [10],180 nM
same,Kd,HLA-A*02:03; [10],0.942 nM
same,Kd,HLA-A*02:02; [10],2.57 nM
SRNSTHEMY,Kd,HLA-A*30:02; source organism: Dengue virus 4 Thailand/0348/1991,1810 nM
SIINHKFCNL,Kd,HLA-A*02:06; [11],1010 nM
same,Kd,HLA-A*02:03; [11],562 nM
same,Kd,HLA-A*02:02; [11],247 nM
NSLILLECFV,Kd,HLA-A*02:06; [12],4.17 nM
same,Kd,HLA-A*02:03; [12],46.6 nM
same,Kd,HLA-A*02:02; [12],1.21 nM
QYIYMGEPL,Kd,HLA-A*23:01; source organism: Dengue virus 2 Jamaica/1409/1983,205 nM
VATDVPSAT,IC50,HLA-A*02:01 [3]; source organism: Zaire ebolavirus,≥ 157000 nM
RQQLEDIFM,Kd,HLA-A*02:06; [8],944 nM
same,Kd,HLA-A*02:03; [8],≥ 26900 nM
same,Kd,HLA-A*02:02; [8],5730 nM
LLAALFHDI,Kd,HLA-A*69:01,1940 nM
same,Kd,HLA-A*02:01 [1]; [13],85 nM
same,Kd,HLA-B*15:01; [13],2480 nM
same,Kd,HLA-B*58:01,1940 nM
STTGEWPLI,Kd,HLA-A*02:06; [8],1240 nM
same,Kd,HLA-A*02:03; [8],≥ 44500 nM
same,Kd,HLA-A*02:02; [8],≥ 21100 nM
FMEEEIKAEM,Kd,HLA-A*02:06; [8],865 nM
same,Kd,HLA-A*02:03; [8],3070 nM
same,Kd,HLA-A*02:02; [8],1030 nM
LFSGVSWIM,Kd,HLA-A*24:02,141 nM
GALDVSASV,Kd,HLA-A*02:06; [10],2.27 nM
same,Kd,HLA-A*02:03; [10],2.34 nM
same,Kd,HLA-A*02:02; [10],0.718 nM
EADPTGHSY,Kd,HLA-B*15:01; source organism: Homo sapiens,13500 nM
VIDRLPSET,Kd,HLA-A*02:06; [8],3670 nM
same,Kd,HLA-A*02:03; [8],742 nM
same,Kd,HLA-A*02:02; [8],7080 nM
VMYASALVLL,Kd,HLA-A*02:06; [10],41.4 nM
same,Kd,HLA-A*02:03; [10],4.03 nM
same,Kd,HLA-A*02:02; [10],0.251 nM
IMQVFFGYFA,Kd,HLA-A*02:06; [10],51.1 nM
same,Kd,HLA-A*02:03; [10],1570 nM
same,Kd,HLA-A*02:02; [10],590 nM
CTNTFVLKK,Kd,HLA-A*11:01 [6],77.8 nM
same,Kd,HLA-A*03:01 [7],9.71 nM
same,Kd,HLA-A*01:01,5090 nM
KLFTIAMWLL,Kd,HLA-A*02:06; [10],262 nM
same,Kd,HLA-A*02:03; [10],709 nM
same,Kd,HLA-A*02:02; [10],8.53 nM
ETAEAMHAS,Kd,HLA-A*26:01,71 nM
KLSDGVAVL,IC50,HLA-A*02:01 [3]; source organism: Homo sapiens,6500 nM
